Reference: patent US20170313769A1 (Pfizer, published 2017)

Tests used:
[1] = molecular target: T1, Human IFNβ (mature human interferon beta) (human, UniProt P01574 22-187); assay: Octet (BLI) response rank; method not described
T1 construct: Recombinant human IFNβ (Peprotech for SPR); In some functional assays it is endogenous IFNβ secreted by primary human cells; also called hIFN-β; recombinant human IFNβ

[2] = molecular target: T1, Human IFNβ (mature human interferon …); assay: cell-based or functional assay
[3] = molecular target: T1, Human IFNβ (mature human interferon …); assay: SPR (affinity maturation); before the light chain mutations (parent antibody)
[4] = molecular target: T1, Human IFNβ (mature human interferon …); assay: SPR, Biacore T200; antibody amine-coupled on CM5 chip, human IFNβ as analyte, 1:1 model

T1 sequence (P01574 22-187): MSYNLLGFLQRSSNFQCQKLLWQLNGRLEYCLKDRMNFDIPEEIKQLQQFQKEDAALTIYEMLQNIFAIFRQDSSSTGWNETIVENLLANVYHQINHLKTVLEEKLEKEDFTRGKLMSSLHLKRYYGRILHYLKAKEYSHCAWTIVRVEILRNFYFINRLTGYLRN

Row | Binder | Response rank (Octet) [1] | IC50 (pM) pSTAT1 Inhibition [2] | also measured
1 | CTI-AF15 (antibody, human IgG1, kappa, V domains shown) VH: QVQLVQSGAEVKKPGSSVKVSCKASGYTFSRYWMHWVRQAPGQGLEWMGHIDPSDSYTYYNQKFKGRVTITADESTSTAYMELSSLRSEDTAVYYCARWDYGNLLFEYWGQGTLVTVSS VL: DIQMTQSPSSLSASVGDRVTITCRTSQDISSYLNWYQQKPGKAFKLLIYSTSRLHSGVPSRFSGSGSGTDFTLTISSLQPEDFATYYCQQGIILPITFGGGTKVEIKR | 3 rank | 80 pM | 
2 | humanized parent of CTI-AF1 before affinity maturation (antibody, V domains shown, no mutations were made in VH) VH: QVQLVQSGAEVKKPGSSVKVSCKASGYTFSRYWMHWVRQAPGQGLEWMGHIDPSDSYTYYNQKFKGRVTITADESTSTAYMELSSLRSEDTAVYYCARWDYGNLLFEYWGQGTLVTVSS VL: DIQMTQSPSSLSASVGDRVTITCRTSQDISNYLNWYQQKPGKAFKLLIYSTSRLHSGVPSRFSGSGSGTDFTLTISSLQPEDFATYYCQQGHTLPLTFGGGTKVEIK |  |  | Kd [3]: 25 nM
3 | CTI-AF10 (antibody, human IgG1, kappa, V domains shown) VH: QVQLVQSGAEVKKPGSSVKVSCKASGYTFSRYWMHWVRQAPGQGLEWMGHIDPSDSYTYYNQKFKGRVTITADESTSTAYMELSSLRSEDTAVYYCARWDYGNLLFEYWGQGTLVTVSS VL: DIQMTQSPSSLSASVGDRVTITCRTSQDISSYLNWYQQKPGKAFKLLIYSTSRLHSGVPSRFSGSGSGTDFTLTISSLQPEDFATYYCQQSTILPLTFGGGTKVEIKR | 5 rank |  | 
4 | CTI-AF20 (antibody, human IgG1, kappa, V domains shown) VH: QVQLVQSGAEVKKPGSSVKVSCKASGYTFSRYWMHWVRQAPGQGLEWMGHIDPSDSYTYYNQKFKGRVTITADESTSTAYMELSSLRSEDTAVYYCARWDYGNLLFEYWGQGTLVTVSS VL: DIQMTQSPSSLSASVGDRVTITCRTSQDISSYLNWYQQKPGKAFKLLIYTTSRLRSGVPSRFSGSGSGTDFTLTISSLQPEDFATYYCQQGIVLPITFGGGTKVEIKR | 8 rank | 20 pM | Kd [4]: 0.335 nM
5 | CTI-AF16 (antibody, human IgG1, kappa, V domains shown) VH: QVQLVQSGAEVKKPGSSVKVSCKASGYTFSRYWMHWVRQAPGQGLEWMGHIDPSDSYTYYNQKFKGRVTITADESTSTAYMELSSLRSEDTAVYYCARWDYGNLLFEYWGQGTLVTVSS VL: DIQMTQSPSSLSASVGDRVTITCRTSQDISNYLNWYQQKPGKAFKLLIYTTSRLRSGVPSRFSGSGSGTDFTLTISSLQPEDFATYYCQQGIILPITFGGGTKVEIKR | 2 rank |  | IC50 (pM) ISRE Neutralization [2]: 14 pM
6 | CTI-AF8 (antibody, human IgG1, kappa, V domains shown) VH: QVQLVQSGAEVKKPGSSVKVSCKASGYTFSRYWMHWVRQAPGQGLEWMGHIDPSDSYTYYNQKFKGRVTITADESTSTAYMELSSLRSEDTAVYYCARWDYGNLLFEYWGQGTLVTVSS VL: DIQMTQSPSSLSASVGDRVTITCRTSQDIGNYLNWYQQKPGKAFKLLIYSTSRLHSGVPSRFSGSGSGTDFTLTISSLQPEDFATYYCQQSTILPLTFGGGTKVEIKR | 6 rank |  | IC50 (pM) ISRE Neutralization [2]: 460 pM
7 | CTI-AF14 (antibody, human IgG1, kappa, V domains shown) VH: QVQLVQSGAEVKKPGSSVKVSCKASGYTFSRYWMHWVRQAPGQGLEWMGHIDPSDSYTYYNQKFKGRVTITADESTSTAYMELSSLRSEDTAVYYCARWDYGNLLFEYWGQGTLVTVSS VL: DIQMTQSPSSLSASVGDRVTITCRTSQDISNYLNWYQQKPGKAFKLLIFSTSRLHSGVPSRFSGSGSGTDFTLTISSLQPEDFATYYCQQGIILPITFGGGTKVEIKR | 7 rank | 30 pM | 
8 | CTI-AF27 (antibody, human IgG1, kappa, V domains shown) VH: QVQLVQSGAEVKKPGSSVKVSCKASGYTFSRYWMHWVRQAPGQGLEWMGHIDPSDSYTYYNQKFKGRVTITADESTSTAYMELSSLRSEDTAVYYCARWDYGNLLFEYWGQGTLVTVSS VL: DIQMTQSPSSLSASVGDRVTITCRTSQDIDNFLQWYQQKPGKAFKLLIFSTSKLHSGVPSRFSGSGSGTDFTLTISSLQPEDFATYYCQQGIILPITFGGGTKVEIKR | 10 rank | 70 pM | 

Now from value to binder, other results behind:

Row | Response rank (Octet) [1] | IC50 (pM) pSTAT1 Inhibition [2] | Binder | also measured
9 |  | 10 pM | CTI-AF5 (antibody, human IgG1, kappa, V domains shown) VH: QVQLVQSGAEVKKPGSSVKVSCKASGYTFSRYWMHWVRQAPGQGLEWMGHIDPSDSYTYYNQKFKGRVTITADESTSTAYMELSSLRSEDTAVYYCARWDYGNLLFEYWGQGTLVTVSS VL: DIQMTQSPSSLSASVGDRVTITCRTSQDISNYLNWYQQKPGKAFKLLIYTTSRLRSGVPSRFSGSGSGTDFTLTISSLQPEDFATYYCQQGIVLPITFGGGTKVEIKR | 
10 | 9 rank |  | CTI-AF23 (antibody, human IgG1, kappa, V domains shown) VH: QVQLVQSGAEVKKPGSSVKVSCKASGYTFSRYWMHWVRQAPGQGLEWMGHIDPSDSYTYYNQKFKGRVTITADESTSTAYMELSSLRSEDTAVYYCARWDYGNLLFEYWGQGTLVTVSS VL: DIQMTQSPSSLSASVGDRVTITCRTSQDISSYLNWYQQKPGKAFKLLIYTTSRLRSGVPSRFSGSGSGTDFTLTISSLQPEDFATYYCQQSTILPLTFGGGTKVEIKR | 
11 | 4 rank |  | CTI-AF4 (antibody, human IgG1, kappa, V domains shown) VH: QVQLVQSGAEVKKPGSSVKVSCKASGYTFSRYWMHWVRQAPGQGLEWMGHIDPSDSYTYYNQKFKGRVTITADESTSTAYMELSSLRSEDTAVYYCARWDYGNLLFEYWGQGTLVTVSS VL: DIQMTQSPSSLSASVGDRVTITCRTSQDISSYLNWYQQKPGKAFKLLIYSTSRLHSGVPSRFSGSGSGTDFTLTISSLQPEDFATYYCQQGIVLPITFGGGTKVEIKR | 
12 | 12 rank |  | CTI-AF9 (antibody, human IgG1, kappa, V domains shown) VH: QVQLVQSGAEVKKPGSSVKVSCKASGYTFSRYWMHWVRQAPGQGLEWMGHIDPSDSYTYYNQKFKGRVTITADESTSTAYMELSSLRSEDTAVYYCARWDYGNLLFEYWGQGTLVTVSS VL: DIQMTQSPSSLSASVGDRVTITCRTSQDISNYLNWYQQKPGKAFKLLIFSTSRLHSGVPSRFSGSGSGTDFTLTISSLQPEDFATYYCQQSTILPLTFGGGTKVEIKR | IC50 (pM) ISRE Neutralization [2]: 75 pM
13 | 11 rank |  | CTI-AF21 (antibody, human IgG1, kappa, V domains shown) VH: QVQLVQSGAEVKKPGSSVKVSCKASGYTFSRYWMHWVRQAPGQGLEWMGHIDPSDSYTYYNQKFKGRVTITADESTSTAYMELSSLRSEDTAVYYCARWDYGNLLFEYWGQGTLVTVSS VL: DIQMTQSPSSLSASVGDRVTITCRTSQDIDNFLQWYQQKPGKAFKLLIFSTSKLHSGVPSRFSGSGSGTDFTLTISSLQPEDFATYYCQQGIVLPITFGGGTKVEIKR | 
